In article PMC5603731, “The SET1 Complex Selects Actively Transcribed Target Genes via Multivalent Interaction with CpG Island Chromatin” (Cell Reports, 2017):
No end group written: not given here.

Key:
mouse C127 cells = assay: FRAP, nuclear mobility of GFP fusion proteins; type: cell-based; details: compared to wild-type GFP-CFP1
Description: FRAP experiments were performed on an UltraView spinning disk microscope (Perkin Elmer) equipped with an EM-CCD camera (Hamamatsu) using a 60x/1.4NA oil objective. 50 pre-bleach and 1,000 post-bleach images were captured at a rate of 8 frames per second (fps) (Figures 1B and C) after bleaching a circular diffraction limited spot of ∼2.5 μm diameter using a 488-nm laser line at 100% transmission. Alternatively, to capture the rapid recovery of the P/C/S^∗ mutant effectively, we used an acquisition rate of 13 fps (Figures 1E and F). FRAP curves were calculated in MATLAB, normalizing for the initial conditions (brightness of the cell and brightness of the spot) and corrected for acquisition photobleaching over time ([Mueller et al., 2012]). Half recovery times (t1/2) were calculated using a biexponential fit. Briefly, this involved deriving t1/2 values from individual cells (Figures S1F and S1G) and then collecting the distribution of t1/2 values across biological triplicates for the same transgene (Figures S1H and S1I). To compare the dynamics of individual GFP-CFP1 transgenes, a Student’s t test was then used to calculate the probability (p) that there was no difference between the wild-type and mutant versions of CFP1.
Supplementary Experimental Procedures: […]
Fluorescence recovery after photobleaching (FRAP) […]

CFP1 PHD domain [1] = assay: other fluorescence titration; intrinsic fluorescence of the CFP1 PHD finger, excitation 280 nm, emission 320-380 nm; increasing concentrations of histone peptide; 20 mM Tris-HCl pH 6.8, 100 mM NaCl, 2.5 mM DTT; 25°C
CFP1 PHD domain [2] = assay: NMR titration; 1H,15N HSQC of 0.1-0.2 mM uniformly 15N-labelled CFP1 PHD finger; histone tail peptides added stepwise; 20 mM Tris-HCl pH 6.8, 100 mM NaCl, 2.5 mM DTT, 7% D2O; 298 K

Molecule	Kd (CFP1 PHD domain [1]) [µM]	other results
GFP-SET1A: GFP-tagged wild-type SET1A	–	Nuclear mobility (FRAP) (mouse C127 cells): slightly less mobile than GFP-CFP1
ARTK(Me)QTARKSTG [H3K4me1 peptide]	64	–
ARTKQTARKSTG (here or on the partner: zinc-bound PHD finger; 15N-labelled for NMR. Construct limits are not in the text shown, so the UniProt PHD-type zinc finger limits are used; human is inferred from the NP_001095124.1 alignment and th) [unmodified H3K4me0 peptide]	–	Kd (CFP1 PHD domain [2]): 373 µM

More lines, main results first:

Kd (CFP1 PHD domain [1]) [µM]	Molecule	other results
1.3	ARTK(trimethyl)QTARKSTG [H3K4me3 peptide]	–
9.1	ARTK(dimethyl)QTARKSTG [H3K4me2 peptide]	–
